These results are taken from PMC5707411.

As usually defined, the Kd is the free concentration of one partner at which half of the binding sites on the other are occupied at equilibrium, for simple one-to-one binding. One may read the koff as the rate constant with which the complex falls apart. Higher therefore signals fast dissociation. One may read the stoichiometry N as the number of molecules, sites or subunits per partner or assembly.

For assay [1], the target named is 5C4 IgG. Nature of the assay: flow cytometry on cells. The note with it: full-length pre-F variants expressed in Expi293 cells; parent: est. 0.04; read off a plot.
Assay [2] has as its target D25 IgG. Nature of the assay: flow cytometry on cells. The note with it: full-length pre-F variants expressed in Expi293 cells; parent: est. 0.14; read off a plot. On the technique in general: A flow cytometer gives signals particle by particle.
Assay [3] has as its target 5C4 IgG. Nature of the assay: flow cytometry on cells. The note with it: full-length pre-F variants expressed in Expi293 cells, read off a plot.
Assay [4] addresses D25 IgG. Nature of the assay: flow cytometry on cells. The note with it: full-length pre-F variants expressed in Expi293 cells, read off a plot.
In assay [5] the target is full-length RSV F (TM, residues 1–574) from strain 18537 with the DS-Cav1 prefusion-stabilizing mutations (respiratory syncytial virus subtype B, strain 18537) (UniProt P13843).
In assay [6] the target is prefusion-stabilized RSV F strain A2 (DS-Cav1). Nature of the assay: SPR. In general terms: SPR reads the build-up and loss of mass on a sensor chip optically.
Assay [7] has as its target RSV F (+) FdTHS based on strain A2 (wild-type A2 RSV F ectodomain fused to a C-terminal trimerization motif) (respiratory syncytial virus subtype A, strain A2) (UniProt Q4KRW9). Nature of the assay: crystal structure; 5C4 Fab co-expressed with RSV F (+) FdTHS in Expi293, complex purified (Ni-NTA, Strep-Tactin, thrombin, Superose 6); crystal from 0.2 M ammonium acetate, 0.1 M Bis-Tris pH 6.5, 25% PEG 3350; 3.4 Å.

Turning to “full-length RSV F (TM, residues 1–574) from strain 18537 with the DS-Cav1 prefusion-stabilizing mutations (from UniProt P13843) N201K”, the other: Relative binding (fractional binding relative to motavizumab) worked out at 0.52 in the assay with 5C4 IgG [1], 0.35 in the assay with D25 IgG [2], 0.44 in the assay with 5C4 IgG [3] (parent: est. 0.005) and 0.35 in the assay with D25 IgG [4] (parent: est. 0.14).
As for “full-length RSV F (TM, residues 1–574) from strain A2 with the DS-Cav1 prefusion-stabilizing mutations N67T”, the other: Relative binding (fractional binding relative to motavizumab) with 5C4 IgG [3] (parent: est. 0.75) came out at 0.6; with D25 IgG [4] (parent: est. 0.69), 0.61.
For “full-length RSV F (TM, residues 1–574) from strain A2 with the DS-Cav1 prefusion-stabilizing mutations D200N”, in that order: 0.74 and 0.67.
As to “full-length RSV F (TM, residues 1–574) from strain 18537 with the DS-Cav1 prefusion-stabilizing mutations (from UniProt P13843) R213S”, the other: Relative binding (fractional binding relative to motavizumab) with 5C4 IgG [1] was 0.01; with D25 IgG [2] it was 0.05.
For “full-length RSV F (TM, residues 1–574) from strain 18537 with the DS-Cav1 prefusion-stabilizing mutations (from UniProt P13843) T74A”, the other: Relative binding (fractional binding relative to motavizumab) with 5C4 IgG [1] was found to be 0.01; in the assay with D25 IgG [2], 0.13.
For “full-length RSV F (TM, residues 1–574) from strain A2 with the DS-Cav1 prefusion-stabilizing mutations K201N”, the other: Relative binding (fractional binding relative to motavizumab) amounted to 0.012 with 5C4 IgG [3] (parent: est. 0.60), 0.01 with 5C4 IgG [3] (parent: est. 0.75), 0.64 in the assay with D25 IgG [4] (parent: est. 0.63) and 0.67 with D25 IgG [4] (parent: est. 0.69).
5C4 IgG (antibody) displayed an EC50 of 5C4 neutralisation of mKate-RSV B strain 18537 wild-type virus on HEp-2 cells (viral F without DS-Cav1; antibody format not given) in assay [5] of 9.15 µg/mL.
“full-length RSV F (TM, residues 1–574) from strain A2 with the DS-Cav1 prefusion-stabilizing mutations Q202R”: the other: Relative binding (fractional binding relative to motavizumab) is 0.73 with 5C4 IgG [3] (parent: est. 0.75) and 0.63 with D25 IgG [4] (parent: est. 0.69).
In assay [6], D25 Fab gave a Kd below 0.0769 nM and a koff below 1e-05 s⁻¹.
On to “full-length RSV F (TM, residues 1–574) from strain 18537 with the DS-Cav1 prefusion-stabilizing mutations (from UniProt P13843) N200D”, for which the other: Relative binding (fractional binding relative to motavizumab) turned out to be 0.01 with 5C4 IgG [1] and 0.33 with D25 IgG [2].
“full-length RSV F (TM, residues 1–574) from strain 18537 with the DS-Cav1 prefusion-stabilizing mutations (from UniProt P13843) T67N”: the other: Relative binding (fractional binding relative to motavizumab) stood at 0.15 in the assay with 5C4 IgG [1] and 0.53 with D25 IgG [2].
As to “full-length RSV F (TM, residues 1–574) from strain A2 with the DS-Cav1 prefusion-stabilizing mutations K209Q”, the other: Relative binding (fractional binding relative to motavizumab) with 5C4 IgG [3] (parent: est. 0.75) came out at 0.61; with D25 IgG [4] (parent: est. 0.69), 0.54.
Taken in the same sequence, the figures for “full-length RSV F (TM, residues 1–574) from strain A2 with the DS-Cav1 prefusion-stabilizing mutations S213R” were 0.7 and 0.65.
“full-length RSV F (TM, residues 1–574) from strain 18537 with the DS-Cav1 prefusion-stabilizing mutations (from UniProt P13843) R202Q”: the values for the other: Relative binding (fractional binding relative to motavizumab) in the assay with 5C4 IgG [1] and with D25 IgG [2] were 0.01 and 0.37, respectively.
On to “full-length RSV F (TM, residues 1–574) from strain A2 with the DS-Cav1 prefusion-stabilizing mutations K201R”, for which the other: Relative binding (fractional binding relative to motavizumab) worked out at 0.61 in the assay with 5C4 IgG [3] (parent: est. 0.60) and 0.64 in the assay with D25 IgG [4] (parent: est. 0.63).
On to “full-length RSV F (TM, residues 1–574) from strain 18537 with the DS-Cav1 prefusion-stabilizing mutations (from UniProt P13843) N201R”, for which the other: Relative binding (fractional binding relative to motavizumab) with 5C4 IgG [3] (parent: est. 0.005) was 0.4; with D25 IgG [4] (parent: est. 0.14), 0.01.
Take “RSV F (+) FdTHS based on strain A2 (wild-type A2 RSV F ectodomain fused to a C-terminal trimerization motif) (from UniProt Q4KRW9 1-391) (complex)”: in assay [7], the stoichiometry N was found to be 3.
As to “full-length RSV F (TM, residues 1–574) from strain A2 with the DS-Cav1 prefusion-stabilizing mutations K201A”, the other: Relative binding (fractional binding relative to motavizumab) in the assay with 5C4 IgG [3] (parent: est. 0.60) turned out to be 0.02; with D25 IgG [4] (parent: est. 0.63), 0.64.
As for “full-length RSV F (TM, residues 1–574) from strain 18537 with the DS-Cav1 prefusion-stabilizing mutations (from UniProt P13843) Q209K”, the other: Relative binding (fractional binding relative to motavizumab) stood at 0.19 with 5C4 IgG [1] and 0.58 with D25 IgG [2].
Consider “full-length RSV F (TM, residues 1–574) from strain 18537 with the DS-Cav1 prefusion-stabilizing mutations (from UniProt P13843) N201A”, for which the other: Relative binding (fractional binding relative to motavizumab) came to 0.01 with 5C4 IgG [3] (parent: est. 0.005) and 0.003 in the assay with D25 IgG [4] (parent: est. 0.14).
Consider “full-length RSV F (TM, residues 1–574) from strain A2 with the DS-Cav1 prefusion-stabilizing mutations A74T”, for which the other: Relative binding (fractional binding relative to motavizumab) with 5C4 IgG [3] (parent: est. 0.75) was 0.7; with D25 IgG [4] (parent: est. 0.69), 0.68.
